FRET efficiency data for one substance are collected here from article PMC4679584.

This experiment addresses tumor suppressor gene 101 (TSG101) tagged with eYFP (UniProt Q99816). Description: FRET or BRET. Background: BRET reads energy transfer from a luciferase to a nearby fluorophore.
UniProt Q99816, sequence (Q99816 whole entry): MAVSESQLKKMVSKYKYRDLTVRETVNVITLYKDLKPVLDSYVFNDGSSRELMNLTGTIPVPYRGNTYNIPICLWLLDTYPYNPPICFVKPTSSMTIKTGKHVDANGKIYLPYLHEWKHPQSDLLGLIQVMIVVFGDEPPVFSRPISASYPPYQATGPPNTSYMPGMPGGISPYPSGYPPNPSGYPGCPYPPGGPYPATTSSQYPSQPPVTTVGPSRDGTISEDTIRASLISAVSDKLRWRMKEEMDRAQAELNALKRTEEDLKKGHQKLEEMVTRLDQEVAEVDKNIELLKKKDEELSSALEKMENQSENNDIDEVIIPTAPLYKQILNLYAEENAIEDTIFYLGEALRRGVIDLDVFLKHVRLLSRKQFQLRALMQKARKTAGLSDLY

“wild-type HEV ORF3 protein (Kernow-C1 P6, genotype 3) tagged with eCFP (natural protein)” showed an FRET efficiency of 21.5%.
